Columns and labels:
[1] = molecular target: the molecule itself; assay: self-association; analytical gel filtration (Superdex 200)
[2] = molecular target: T1, bovine Apolipoprotein A-I (Bos taurus, UniProt P15497 25-265); assay: co-purification from cell culture supernatant on nickel affinity resin via the His tag of NS1
T1 construct: also called bovine apolipoprotein A1; Apo AI[Bos taurus]
T1 sequence: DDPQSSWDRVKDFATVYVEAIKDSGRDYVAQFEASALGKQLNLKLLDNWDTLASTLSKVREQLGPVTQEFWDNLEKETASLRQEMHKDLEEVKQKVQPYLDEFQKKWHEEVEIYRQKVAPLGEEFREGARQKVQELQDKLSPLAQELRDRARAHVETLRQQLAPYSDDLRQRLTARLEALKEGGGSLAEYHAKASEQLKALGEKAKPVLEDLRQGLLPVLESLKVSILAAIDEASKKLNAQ

Binder	binding result [1]	binding result [2]
sNS1 (recombinant Zika virus NS1 purified from HEK293T culture supernatant) (other, Secreted form purified in the presence of 0.1% Triton X-100; Gel filtration: mainly hexamer (227 kDa); also called NS1[ZIKV]; soluble NS1 purified from cell culture supernatant) GPMDVGCSVDFSKKETRCGTGVFVYNDVEAWRDRYKYHPDSPRRLAAAVKQAWEEGICGISSVSRMENIMWKSVEGELNAILEENGVQLTVVVGSVKNPMWRGPQRLPVPVNELPHGWKAWGKSYFVRAAKTNNSFVVDGDTLKECPLKHRAWNSFLVEDHGFGVFHTSVWLKVREDYSLECDPAVIGTAVKGKEAAHSDLGYWIESEKNDTWRLKRAHLIEMKTCEWPKSHTLWTDGVEESDLIIPKSLAGPLSHHNTREGYRTQVKGPWHSEELEIRFEECPGTKVHVEETCGTRGPSLRSTTASGRVIEEWCCRECTMPPLSFRAKDGCWYGMEIRPRKEPESNLVRSMVTALEHHHHHHHH	binds	binds
mNS1 (recombinant Zika virus NS1 purified from HEK293T cell lysate) (other, Expressed in HEK293T from pTriEx-1; Gel filtration: mainly hexamer (212 kDa) with an extra monomer peak (44 kDa); SDS gives a dimer, heat gives a monomer; also called NS1[ZIKV]; membranous NS1 purified from cells) GPMDVGCSVDFSKKETRCGTGVFVYNDVEAWRDRYKYHPDSPRRLAAAVKQAWEEGICGISSVSRMENIMWKSVEGELNAILEENGVQLTVVVGSVKNPMWRGPQRLPVPVNELPHGWKAWGKSYFVRAAKTNNSFVVDGDTLKECPLKHRAWNSFLVEDHGFGVFHTSVWLKVREDYSLECDPAVIGTAVKGKEAAHSDLGYWIESEKNDTWRLKRAHLIEMKTCEWPKSHTLWTDGVEESDLIIPKSLAGPLSHHNTREGYRTQVKGPWHSEELEIRFEECPGTKVHVEETCGTRGPSLRSTTASGRVIEEWCCRECTMPPLSFRAKDGCWYGMEIRPRKEPESNLVRSMVTALEHHHHHHHH	binds	

Source: patent publication US20210033609A1 (EUROIMMUN MEDIZINISCHE LABORDIAGNOSTIKA, published 2021)
